Results published in publication PMC2770460, “Karyopherin binding interactions and nuclear import mechanism of nuclear pore complex protein Tpr” (BMC Cell Biology, 2009).

Target: His-importin α (human, UniProt P52292 1-529)
Assay: ELISA; solid phase binding assay: Maxisorp microtiter plates coated with 25 ng of Tpr or C-Tpr; increasing concentrations of the soluble protein; bound protein detected with primary antibodies and horseradish peroxidase-conjugated secondary antibodies (TMB); apparent Kd from B = Bmax x Y/(Kd + Y); CRM1, NES and RanGTP at equimolar concentrations
Conditions: both partners purified

B1: C-terminal domain of Tpr (C-Tpr, residues 1626-2348) (domain or fragment)
chain: EQRDEPQEPSNKVPEQQRQITLKTTPASGERGIASTSDPPTANIKPTPVVSTPSKVTAAAMAGNKSTPRASIRPMVTPATVTNPTTTPTATVMPTTQVESQEAMQSEGPVEHVPVFGSTSGSVRSTSPNVQPSISQPILTVQQQTQATAFVQPTQQSHPQIEPANQELSSNIVEVVQSSPVERPSTSTAVFGTVSATPSSSLPKRTREEEEDSTIEASDQVSDDTVEMPLPKKLKSVTPVGTEEEVMAEESTDGEVETQVYNQDSQDSIGEGVTQGDYTPMEDSEETSQSLQIDLGPLQSDQQTTTSSQDGQGKGDDVIVIDSDDEEEDDDENDGEHEDYEEDEEDDDDDEDDTGMGDEGEDSNEGTGSADGNDGYEADDAEGGDGTDPGTETEESMGGGEGNHRAADSQNSGEGNTGAAESSFSQEVSREQQPSSASERQAPRAPQSPRRPPHPLPPRLTIHAPPQELGPPVQRIQMTRRQSVGRGLQLTPGIGGMQQHFFDDEDRTVPSTPTLVVPHRTDGFAEAIHSPQVAGVPRFRFGPPEDMPQTSSSHSDLGQLASQGGLGMYETPLFLAHEEESGGRSVPTTPLQVAAPVTVFTESTTSDASEHASQSVPMVTTSTGTLSTTNETATGDDGDEVFVEAESEGISSEAGLEIDSQQEEEPVQASDESDLPSTSQDPPSSSSVDTSSSQPKPFRRVRLQTTLRQGVRGRQFNRQRGVS
- Kd: 21.5 nM
